Assay results taken from CN113754774A (SUNSHINE GUOJIAN PHARMACEUTICAL SHANGHAI CO LTD, dated 2021).

What was measured:
EGFR-ECD-hFc [1] = molecular target: T1, EGFR-ECD-hFc (human, UniProt P00533 25-645); assay: ELISA, EGFR-ECD-hFc coated, HRP anti-human Fab detection (Fig. 2B)
T1 construct: extracellular domain; Made in-house in HEK293F; ELISA coating antigen; not shown: Fc segment of human IgG1

EGFR-ECD-hFc [2] = molecular target: T1, EGFR-ECD-hFc; assay: ELISA, EGFR-ECD-hFc coated (Fig. 3B)
野生型EGFR on A431 cells = 野生型EGFR on A431 cells (human, UniProt P00533 25-1210); assay: cell-based or functional assay
PD-L1-His [3] = molecular target: T2, PD-L1-His (UniProt Q9NZQ7 19-238, limits assumed); assay: ELISA, PD-L1-His coated at 10 ng/well
T2 construct: extracellular domain; Made in-house in HEK293F; used as ELISA coat and as Biacore analyte; not shown: C-terminal polyhistidine tag

PD-L1-His [4] = molecular target: T2, PD-L1-His; assay: ELISA, PD-L1-His coated (Fig. 3A)

EC50 (EGFR-ECD-hFc [1])	EC50 (EGFR-ECD-hFc [2])	抑制A431细胞的增殖 IC50 (CCK-8) (野生型EGFR on A431 cells)	binding result (PD-L1-His [3])	EC50 (PD-L1-His [4])	Binder
0.248 nM	0.225 nM	0.563 nM	no binding	–	Cetuximab-HC+Anti-PDL1-LC (antibody, V domains shown, Hybrid antibody: heavy chain of Cetuximab with the light chain of Anti-PDL1 (the common light chain)) VH: not shown VL: EIVLTQSPDFLSVTPKEKVTITCRASQSIGTTIHWYQQKPDQSPKLLIKYASQSFSGVPSRFSGSGSGTDFTLTINSVEAEDAATYYCQQSNSWPLTFGAGTKLEIKR
–	0.239 nM	0.709 nM	–	0.2 nM	PDL1-Fab-Cetuximab-IgG1 (bispecific antibody, Tetravalent bispecific antibody against PD-L1 and EGFR; two long polypeptide chains and four common light chains) heavy: not shown light: EIVLTQSPDFLSVTPKEKVTITCRASQSIGTTIHWYQQKPDQSPKLLIKYASQSFSGVPSRFSGSGSGTDFTLTINSVEAEDAATYYCQQSNSWPLTFGAGTKLEIKRTVAAPSVFIFPPSDEQLKSGTASVVCLLNNFYPREAKVQWKVDNALQSGNSQESVTEQDSKDSTYSLSSTLTLSKADYEKHKVYACEVTHQGLSSPVTKSFNRGEC
–	0.185 nM	0.96 nM	–	0.336 nM	Cetuximab-Fab-PDL1-IgG1 (bispecific antibody, Tetravalent bispecific antibody against PD-L1 and EGFR; two long polypeptide chains and four common light chains) heavy: not shown light: EIVLTQSPDFLSVTPKEKVTITCRASQSIGTTIHWYQQKPDQSPKLLIKYASQSFSGVPSRFSGSGSGTDFTLTINSVEAEDAATYYCQQSNSWPLTFGAGTKLEIKRTVAAPSVFIFPPSDEQLKSGTASVVCLLNNFYPREAKVQWKVDNALQSGNSQESVTEQDSKDSTYSLSSTLTLSKADYEKHKVYACEVTHQGLSSPVTKSFNRGEC
